The supplement of paper PMC12764529
± gives the half width of the 95% confidence interval.

Assays:
[1] = folding stability dG unfold from trypsin proteolysis; higher = more stable
Procedure, shortened: (§1)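 Only designs with AlphaFold2 dimer inter-PAE above 15 were retained; each was a mini-protein under 80 residues with no cysteine, in a PA-tagged cDNA display construct. After digestion with trypsin and chymotrypsin and sequencing, K50 was inferred by Bayesian fitting of counts, and unfolding free energy was derived per protease or combined against a sequence-predicted unfolded-state K50 and a shared folded-state K50.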

[2] = folding stability dG unfold from chymotrypsin proteolysis; higher = more stable
Procedure, shortened: as §1

[3] = folding stability dG unfold (combined trypsin and chymotrypsin); higher = more stable
Procedure, shortened: as §1

Sequence | folding stability dG unfold [1] | folding stability dG unfold [2] | folding stability dG unfold [3]
SAGGSAEIEIVIVVPEGASEEQVKALAKELKEELEKLLKVKDKDGKEKEVKIKKIKITVIVLPKEESAGGSA [r15_717_TrROS_Hall] | 2.37 ± 0.087 kcal/mol | 2.56 ± 0.064 kcal/mol | 2.42 ± 0.2 kcal/mol
SAGGSAGGSISQIKSKIKKILEEKGLKPTKIVIKKTEKLKNKIKVEVEVEIGKGPKISMIIEIESAGGSAGG [r6_841_JUSTAS] | 3.89 ± 0.21 kcal/mol | 2.43 ± 0.16 kcal/mol | 3.19 ± 0.22 kcal/mol
SAGGSAGGSAGGAMTVETVELPSGEVVTLEYDPASGRVLTTVETPDSVERTEDPLEPPAASAGGSAGGSAGG [r7_63_JUSTAS] | 0.302 ± 0.015 kcal/mol | -0.403 ± 0.11 kcal/mol | -0.0846 ± 0.19 kcal/mol
SAGGMVITIPTTTSSIEEAIEAVKKKVEEEGYKVTEIKDIKVSTDPKTGKINVTATVIVEKLPKEEKSAGGS [r16_155_JUSTAS] | 0.99 ± 0.057 kcal/mol | 2.85 ± 0.22 kcal/mol | 2.55 ± 0.3 kcal/mol
SAGGMITLPIPLEEAEKLLKELTPDGGDVTTTPLGSLDGEVLYEVTITPPETGNTVTVKVLVPKGRGSAGGS [r16_486_JUSTAS] | -0.627 ± 0.32 kcal/mol | 0.178 ± 0.11 kcal/mol | 0.0837 ± 0.16 kcal/mol
SAGGKPLEPKIEVEVIPLPSGERVITLRVEVPPNDPLKIKFPGLKKEVEFPGDDEVEFRVVVPPDSFSAGGS [r16_56_TrMRF] | 0.662 ± 0.1 kcal/mol | 0.631 ± 0.1 kcal/mol | 0.69 ± 0.14 kcal/mol
SAGGSAGGSAGMVTIYADPDGSYTAHFPDGSSASYSSLEEVKANLKAKYPDVKDVVIEKTSAGGSAGGSAGG [r11_806_JUSTAS] | 2.17 ± 0.088 kcal/mol | 3.449 ± 0.034 kcal/mol | 3.11 ± 0.084 kcal/mol
SAGGSAMLVKVTITLKKGGKEYTLEQFVEVNPPDLKIEIPPEIKEKGWEIVDIEVEEITPEEAERKSAGGSA [r15_853_JUSTAS] | 1.24 ± 0.091 kcal/mol | 3.19 ± 0.039 kcal/mol | 2.8 ± 0.28 kcal/mol
SAGGSPNIKITSKEKEGSKLKYTIQTPDKTITIEYSEGKATFKFPDGSTKTLTGKGSLEKAIKEAVLSSAGG [r13_98_JUSTAS] | 0.936 ± 0.11 kcal/mol | 1.99 ± 0.25 kcal/mol | 1.59 ± 0.2 kcal/mol
SAGGSAGGSMKYTLLSTRKNPDGTELRLIEVSEDPEKAKEYLESQGAVEIEFKKNIMTVTFKSSAGGSAGGS [r20_222_JUSTAS] | -0.216 ± 0.22 kcal/mol | -0.321 ± 0.32 kcal/mol | -0.214 ± 0.17 kcal/mol
KKIHIMFNNPQHVRRIAKKLGPNVKPDDVKKNPNGYYYFEIDLPNGRPIDIHIPSENMPAEDIVDYALEMLS [r1_279_TrROS] | 0.88 ± 0.02 kcal/mol | 0.86 ± 0.089 kcal/mol | 0.894 ± 0.058 kcal/mol
SAGGMKLPENAKVVKKIEIKDEKTGKTFKATIVKNKDGSLYIFIEKDGKIYKFKIENGKIKMEEIPPSAGGS [r16_711_TrROS_Hall] | 3.75 ± 0.75 kcal/mol | 4.37 ± 0.25 kcal/mol | 4.07 ± 0.55 kcal/mol
SAGGSAGGSAGMTLEELAAADPDAVVPVKVPGTDTDVDVTVEPGAVRFTFPDGTTATVPASAGGSAGGSAGG [r17_128_JUSTAS] | -0.307 ± 0.11 kcal/mol | 0.112 ± 0.19 kcal/mol | -0.046 ± 0.17 kcal/mol
SAMVITTSLEEARKRTGLSESASPEEVRAAVEALIAAETAAGVTLLAIELLEVGDTWTLRVEIERAGGVSAG [r14_158_JUSTAS] | 2.36 ± 0.057 kcal/mol | 1.72 ± 0.068 kcal/mol | 2.07 ± 0.077 kcal/mol
SAGGSAGGSAGPEWYVVMRVENPGTGKEVHFIGPWDDFKEKLPPSNVKMEWHLIPADALKSAGGSAGGSAGG [r11_334_TrROS] | 0.0887 ± 0.066 kcal/mol | 0.666 ± 0.06 kcal/mol | 0.494 ± 0.061 kcal/mol
SAGGRLVEAIREANKQGKPMSREEIKDKIKDAIREQNEENGGKIPEIEITDIHWNPDNGYVPIEIKVSAGGS [r16_365_TrROS] | -0.152 ± 0.2 kcal/mol | -0.62 ± 0.27 kcal/mol | -0.561 ± 0.25 kcal/mol

Sequence | folding stability dG unfold [1] | folding stability dG unfold [2] | folding stability dG unfold [3]
SAGGSAGGSAGLTLEVELPDGKPFPVEVLEVDPGEEDVVVIRVKVKVGDKEYEVTLVLDLSAGGSAGGSAGG [r17_536_TrMRF] | 1.94 ± 0.095 kcal/mol | 1.76 ± 0.08 kcal/mol | 1.9 ± 0.15 kcal/mol
SAGGKIWIPMDFLKEIAEEGNIKEIEVNPDDGDMYTIKFPNLADKFGEPVTISIRRPPGGNPWIEIEPSAGG [r13_163_TrROS] | 0.107 ± 0.1 kcal/mol | 1.08 ± 0.17 kcal/mol | 0.717 ± 0.15 kcal/mol
SAKYYFITVEIYMRTGGGPRKMDITVMIPPEEMPPEDVKEIAKEIADWLAEHHPGFEVKVTIIPPDDMKSAG [r14_723_TrROS] | 2.39 ± 0.092 kcal/mol | 4.07 ± 0.16 kcal/mol | 3.74 ± 0.47 kcal/mol
SMLTITDENGNTITLPAAGEPVTLTVEIEVDGYTVTVEITFDADTKKITIKVEVTNPNGEKQTFTFTFDLSA [r9_1073_TrROS_Hall] | 2.92 ± 0.12 kcal/mol | 4.23 ± 0.083 kcal/mol | 3.84 ± 0.16 kcal/mol
SAGGSAGGSAGGLEELKKGFKKPVFVAKIEKEVRLLPNGDLIVRYKIEGPDLELELVFSSAGGSAGGSAGGS [r10_160_TrMRF] | 2.6 ± 0.12 kcal/mol | 3.56 ± 0.14 kcal/mol | 3.28 ± 0.12 kcal/mol
SAGGEMELTLTVTIKVENLTKEQIEEELRKLLEELGFEIEEITVEYDEENKTITVTVRIRLPPLEDLSAGGS [r16_287_TrROS_Hall] | 3.15 ± 0.27 kcal/mol | 2.98 ± 0.23 kcal/mol | 3.15 ± 0.25 kcal/mol
SAGGSAGGSASIEVAAPPDATVTITTEITRKLPAGAKLPNGVVASADETLKETVTTTITVLGSAGGSAGGSA [r18_450_JUSTAS] | -0.27 ± 0.29 kcal/mol | 0.817 ± 0.047 kcal/mol | 0.364 ± 0.34 kcal/mol
SAGGSAGGSAGVKSVGPIIYPNGEVFGDVKAEEETLPNGKKKLKIYATFSDGSKYEFTLDSAGGSAGGSAGG [r11_810_TrMRF] | -0.261 ± 0.34 kcal/mol | 0.728 ± 0.13 kcal/mol | 0.325 ± 0.26 kcal/mol
SAMIEILSIEEFTRPDGKKLYKITLKTPDPEKVLEKLIELGVKPEIDPNNPDILIAVFPYEKIEEILKESAG [r14_777_TrMRF] | 3.12 ± 0.14 kcal/mol | 5.05 ± 0.23 kcal/mol | 4.77 ± 0.31 kcal/mol
SAGGSAGGSAGGSIEPITIILPDKIIRIYRFEDGTIVEIIDPETGKPTFISLEDAKKLIGSAGGSAGGSAGG [r7_372_TrMRF] | 2.33 ± 0.14 kcal/mol | 2.81 ± 0.043 kcal/mol | 2.61 ± 0.16 kcal/mol
SAGGSAGGSAGGPMPVSVSPIGTKVEKTEEPLVVETTTTLSDAEGPPVTTTTTTVTPPSTSAGGSAGGSAGG [r11_129_JUSTAS] | 1.27 ± 0.08 kcal/mol | 1.33 ± 0.1 kcal/mol | 1.35 ± 0.13 kcal/mol
SAGGSAGGSAGMTPEEEVEYEIEVPDPNSDNLKTKIKLKFPVGTPEEEIKKKAEELAKKLSAGGSAGGSAGG [r11_516_JUSTAS] | 1.67 ± 0.11 kcal/mol | 1.67 ± 0.093 kcal/mol | 1.73 ± 0.19 kcal/mol
SAGGSAVTVVTVELTSPGSTHTITIPASEVEGLSLEEIEARLKALPEVSEITLTRSELPPLNPSLASAGGSA [r2_282_JUSTAS] | 0.788 ± 0.042 kcal/mol | 0.752 ± 0.012 kcal/mol | 0.802 ± 0.046 kcal/mol
SAGGSAGGSAGGSEVEVTTRPDGSIVARVRLPDGGVLTLVAEVGPDGSVVVTEASLSPESAGGSAGGSAGGS [r4_246_TrMRF] | 0.856 ± 0.026 kcal/mol | 1.94 ± 0.027 kcal/mol | 1.66 ± 0.052 kcal/mol
SAGGSAGGSAGKKTYKLVIPVKPDKTVEEIAEEVKKLLGPGSKVEVEEKEDGFATVYVESSAGGSAGGSAGG [r17_20_TrMRF] | 0.292 ± 0.04 kcal/mol | 0.656 ± 0.093 kcal/mol | 0.555 ± 0.097 kcal/mol
